Results: the DeepSol protein solubility set

Assay: soluble on expression in E. coli; label from the status in PepcDB or PDB records

Row | Sequence | soluble on expression in E. coli
1 | MSLTEFLERNAALYGSEKCLTEINLDLQESHNVIWREYELIENNPAGEYRRDMTWKVFDEKANRFANLLIKRGIKKGDKVAILLMNCLEWLPIYFGILKAGAVAVPLNFRYTAEEIKYCLELSDSIALVFGPEFIGRIENIYDQIIPKIKLLLFAGENRPSFAESYDRLTANCPSEAPKVEITDDDDAAIYFSSGTTGFPKAILHAHRSLVSACYTEQKHHGQTREDNFLCIPPLYHTGAKMHWFGSLLSGSKAVLLRGIKPEWILRTVSEEKITIVWLLVPWAQDILDAIERGDVKLEDYDLSQWRLMHIGAQPVPPSLIRRWKKYFPHHLYDTNYGLSESAGPGCVHLGVENIHKVGAIGLPGYNWEAKIVDENGCPVKQGEVGELAVKGPGVMKCYYKDPEATAAVLKDGWLLTGDMARMDEDGFIYLVDRKKDVIISGGENIYPVQIEDFLRSHEAIKDAAVIGLPDKRLGEIAAAIIELKPGFECTEEEINKFCLVLPRYKRPRKIIFDKVPRNPTGKIEKPRLREKYGVVALVEAETEGHHHHHH | soluble
2 | MSLKVVIGYLALDDWEFESLFPTIEWKYLTHINASFARVKADGTLNINPVRKRIESVRETAHKHNVKILISLAKNSPGEFTTAINDPKARKELIQQIIAFTKEYKLDGFDIDYEEYDNWDKNFPSLLVFARGLYLAKEKNMLMTCAVNSRWLNYGTEWEQYFDYINLMSYDRGAFTDKPVQHASYDDFVKDLKYWNEQCRASKSKIVGGLPFYGYSWEESLQGAVDDVRGIRYSGILKHLGNEAADKDNIGKTYYNGRPTIANKCKFIKENDYAGVMIWQLFQDAHNDNYDLKLINVVGREMMEEGHHHHHH | soluble
3 | MSRSKKTRRISDIMPARKADKKPALPISNSKKRKPTRYELDVQAREEKKKRKHKGLPTGSRNVITEQKTASAKVKKDPRVGSRKKVPLMVEFVNKPEKGQMIKPVPLEPSNHATKATVSPEVELTQLENNECLNQLLDQLEAGKVLSTQDQQFVDECLDRVHELIIELGIEDDEENNEDLLLRQFETIDINKFK | not soluble
4 | MIDISHGHTSCSSHRSSSLPSVFWKIHLSPPLPSFKFKKSTESTQRQTIPKFSSPASSLAPSTPLWSLSSCLLVSEVSFWPGAGFLYNDLVCLDREDHCLSNSASHSCG | soluble
5 | MAHHHHHHMCGVIEGLWTRGGRVFHRYVRPSDPRRISAAAAAVHGITWETVQNCSPWPVVARELVAYMALVGADAPVSASAQLEAAQLGGQRAVHLPPLVAHNASFDARFLEHHLRRCGYQIFWHPRYPLTCTRQWAQVAYPHLANNLDALCAFLSIDWAADRAANGHDALTDATLTALLFLQMCRRWMERFGRGE | not soluble
6 | FCGRARVHTDFTPSPYDTDSLKLKKGDIIDIISKPPMGTWMGLLNNKVGTFKFIYVDVLS | soluble
7 | MTTERVLQYPNLLKIVPYLSYSKRMELSKVSPEFRSIHSRLDYSLKTMSFSQDYGAISEEGPIEVGSGILKVESIEYIFEYDENMDQVKIKCLLAPELVRFSNDKSIIRRYFHYYLAASQRIVQHVKLRESDSPFRNLQSLKIPSISWTLNGAREYPQFINFQNHVFEKLELINYESIVLTETQVKSCKHLVLKKETIYQEYTVGNENSAIRNFYCILSNMKLELVLGLNYVESFILLCNRLLLDTLHIGSSVTAIFIKEPLLNVWRTLLERYEDSRGTFMGSGHRKCAILSTDNNIKVAVFENYFGKDSNGKESFTAIKMNNNVEFDA | not soluble
8 | MAHHHHHHMAVESRSRVTSKLVKAHRAMLNSVTQEDLKVDRLPGADYPNPSKKYSSRTEFRDKTDYIMYNPRPRDEPSSENPVSVSPLLCELAAARSRIHFNPTETTIGIVTCGGICPGLNDVIRSITLTGINVYNVKRVIGFRFGYWGLSKKGSQTAIELHRGRVTNIHHYGGTILGSSRGPQDPKEMVDTLERLGVNILFTVGGDGTQRGALVISQEAKRRGVDISVFGVPKTIDNDLSFSHRTFGFQTAVEKAVQAIRAAYAEAVSANYGVGVVKLMGRDSGFIAAQAAVASAQANICLVPENPISEQEVMSLLERRFCHSRSCVIIVAEGFGQDWGRGSGGYDASGNKKLIDIGVILTEKVKAFLKANKSRYPDSTVKYIDPSYMIRACPPSANDALFCATLATLAVHEAMAGATGCIIAMRHNNYILVPIKVATSVRRVLDLRGQLWRQVREITVDLGSDVRLARKLEIRRELEAINRNRDRLHEELAKL | not soluble
9 | MGHHHHHHSHMLKKAKMAKDRKSRKKPVEVKKGKDPNAPKRPMSAYMLWLNASREKIKSDHPGISITDLSKKAGEIWKGMSKEKKEEWDRKAEDARRDYEKAMKEYEGGRG | soluble
10 | MAHHHHHHMRAAPTRLAPSTVASLGRSHCGSQAYHLDAAGAAGWRRRRRLTGVSMTTTHTVAPAVSALPFSLSTARRTYYWPYPENLVPEGATTSPFQSSPVPSVRERIIREYALGPLFGSRTPCCVLGFAGTARDVAACKRDVRRWVARALGKSEADVELGALVQAKEMLLHRSGTDESPRLGDGPGSRPDAEQRRVTRYARLPVQARTLLEVYLPGEEHGEVDAAADADATILAHGYFLQEQLHRHMTTTASSGSDPTGRRDSEDCQPEEPARKMQSHCQGCSEPNDEADVKSSVAALHDVCGVIYCEVPVLDESDFAFDQLCGKEVDDETTERVTDRWTRRAMQQQPQL | soluble
11 | MGSDKIHHHHHHMFTQDESYIKWKLFLEGDDQAYSWIYTHYIQVLYNYGLQITPDSEIVKDCIQDVFVKIYKAKKKLTVPQNPKVYLMIALKNNIYNTFNQERLQKNYAFSLYQTEEQLTVKNEFIDQEARHEEMNNIKRMMKILTPRQREVIYYRFIEELSYDDICQIMGLNYQSAYNLLQRSLQKIREAYGVTGIWMLILHQLTYLH | not soluble
12 | MGLCISKHSGSSYSYSDRDHWEVPVNPSNVRAVSSHQTASASDRASDKVDERPATFSHFQLARCGEDYTLSMVSLAAYQAERRHRGNLIKDRSQSALPWVQVYHSETGLNYSFQIDRTTTVKVAGFNYNVPNDGKTRHLYSAGTSQVNMPVIADNMSACIAVACAAENVDAGTG | not soluble
13 | STLQPRCEDVETAEGVALTVTGVAQVKIMTEKELLAVACEQFLGKNVQDIKNVVLQTLEGHLRSILGTLTVEQIYQDRDQFAKLVREVAAPDVGRMGIEILSFTIKDVYDKVDYLSSLGKTQTAVVQRDADIGVAEAERDAGIREAECKKEMLDVKFMADTKIADSKRAFELQKSAFSEEVNIKTAEAQLAYELQGAREQQKIRQEEIEIEVVQRKKQIAVEAQEILRTDKELIATVRRPAEAEAHRIQQIAEGEKVKQVLLAQAEAEKIRKIGEAEAAVIEAMGKAEAERMKLKAEAYQKYGDAAKMALVLEALPQIAAKIAAPLTKVDEIVVLSGDNSKVTSEVNRLLAELPASVHALTGVDLSKIPLIKKATGVQV | not soluble
14 | MRGSHHHHHHGMASMTGGNNMGRDLYDDDDKDPGRRMMHNSNADDAALTTDVVVVGGGPVGLMLAGELRAGGVGALVLEKLVEPVGHDRAGALHIRTVETLDLRGLLDRFLEGTQVAKGLPFAGIFTQGLDFGLVDTRHPYTGLVPQSRTEALLAEHAREAGAEIPRGHEVTRLRQDAEAVEVTVAGPSGPYPVRARYGVGCDGGRSTVRRLAADRFPGTEATVRALIGYVTTPEREVPRRWERTPDGILVLAFPPEGGLGPGWSSSSTGHSPAADEGPVTLEDLGAAVARVRGTPLTLTEPVSWLSRFGDASRQAKRYRSGRVLLAGDAAHVHFPIGGQGLNTGLQDAVNLGWKLAARVRGWGSEELLDTYHDERHPVAERVLLNTRAQLALMRPDEQHTTPLRGFVEELLGTDEVNRYFTGMITGTDVRYATFAPAASARPHPWPGRFAGGLVLSRPSGEPVPVAELLRSARPLLLDLAGRADLREATRPWSDRVSVVAGEATVEPPAQALLVRPDGYVAWAGSPAATADELRASLARWFGPPANREPVGHQERAGRRGRPLSALKPE | soluble
15 | SATETQIRIGVMGCADIARKVSRAIHLAPNATISGVASRSLEKAKAFATANNYPESTKIHGSYESLLEDPEIDALYVPLPTSLHVEWAIKAAEKGKHILLEKPVAMNVTEFDKIVDACEANGVQIMDGTMWVHNPRTALLKEFLSDSERFGQLKTVQSCFSFAGDEDFLKNDIRVKPGLDGLGALGDAGWYAIRATLLANNFELPKTVTAFPGAVLNEAGVILSCGASLSWEDGRTATIYCSFLANLTMEITAIGTKGTLRVHDFIIPYKETEASFTTSTKAWFNDLVTAWVSPPSEHTVKTELPQEACMVREFARLVGEIKNNGAKPDGYWPSISRKTQLVVDAVKESVDKNYQQISLSGR | soluble
16 | MQVDDWIVGLEVEIFTFDGKEYRGIVYTYDADANCVVLARKSQDSLKSDLRILKASLVKNINVLGRSNVDQLPQQLSPLNLEALKMREEQALQKARKDLARTGVGVSQQAQEIFDALCKTLPCQWEEDSIVIFENIKLKKPYRVEDLEGSEIEAVNRVKVVLENELQKLQRRNT | soluble
17 | MEKVYGLIGFPVEHSLSPLMHNDAFARLGIPARYHLFSVEPGQVGAAIAGVRALGIAGVNVTIPHKLAVIPFLDEVDEHARRIGAVNTIINNDGRLVGYNTDGLGYVQALEEEMNITLDGKRILVIGAGGGARGIYFSLLSTAAERIDMANRTVEKAERLVREGDERRSAYFSLAEAETRLAEYDIIINTTSVGMHPRVEVQPLSLERLRPGVIVSDIIYNPLETKWLKEAKARGARVQNGVGMLVYQGALAFEKWTGQWPDVNRMKQLVIEALRR | soluble
18 | FINQKKVEESELIENKTYGVLITKAGNYHKFESNQLLKSTTDFKSESDTIIFAQTIANTDQIFIVTSLGNIINIPVYKLAFNSKNKLASLVSKKPILLEYETIVFVGTMN | not soluble
19 | MSSGVKASPHRFNRFEIKYLITEQDVPALREQLATRMSTDPLSPPGGYRVESLYFDSADLRCYTEKIEGLKFRRKLRIRTYGDGVLTPESTVSVEIKQRVNKVTQKRRLDLPFIYALALGDSTGAAVGEQVDVEKLLEISPENQHALIHEMASFAKNYRLRPIATTKYHREAFVGADAEESSRVTIDHGVSGRDRDFLLGQDLEDRPTVAQGLAVVEIKCDERVPFWLTDMTAQLEMSVIRMSKYCETIEAFHNRPASAFGAVDPIFLEHHHHHH | not soluble
20 | MKKIAIIGGGIIGMTLANYLDPQKFDITVYDEGLGQATKASAGIISPWLSKRRNKKWYQLAREGAALFPKLVKDFQLTEDIYRQSGTVILRPAAALADLAHLAEERKQTAPEIGEITMLSAVQTAKFLPLLKETPSLFISGGGRLDGPAYLNHLQKRAEAKGVTFCSQRAHFRQLNQGWEIVTNSEKKSVDFLALTPGPHLKELLTTLNLSVDIRPQKGQLLVFETPFTNSQQWPVAMLDGEADLIPFNQGKILLGATHENEQAWDLEETVSAFQQLTSGTAPFLKEAEQLFKQPMHYRVGTRAYTSDFAPFFGPLPEMPHLVVASGLGSSGLTTGPFIGYQLAEYFNTGAFKGELYQKPLSQYVKNNPSLLEHHHHHH | soluble
21 | MNSFKKFLNKKRVQNHFKKSGEGVRLSSGESSSQPSAHAGAAQGGQIDRVAAADIAAQAAFKRMQKNEPQQNAGKRRIQMIAKRELEEERRQVEDLNISGTSSLQQPDREQHLEHSSAISRVLYTSELLGEHHIRSKADLLEDIKNFLSDQISEADDENDKVIAAVLMLYSLNKKHPKETAIETICKYCQNILEHPGEDKYKSIRLGNKAFQERVASVVGGRAFLEAVGFTEKSEGEDKFLVFTKPSDVHLVEALEALKDGQAVPIKVARNLEIFKLKEGQKPKAPKLADDFYNLSTAELKAEQRNKEMQVERMLTLRTKEMRQKDEQMTNYRYKYTLIRVRLPGNLLMQGVFGCHEPFSAVRVFVASTLSDALSTSEFTLRDAASQLVEDESASLAQLSLAPAALLHVVFAENLSDYGQIVADEHIEIIQELEASD | not soluble
